In PMC314469, “Protein Interaction Networks by Proteome Peptide Scanning” (PLoS Biology, 2004):

How the values were obtained:
[1] = target: T1, amphyphisin SH3 (AMPH_HUMAN), P49418; experiment: SPOT array
T1 chain: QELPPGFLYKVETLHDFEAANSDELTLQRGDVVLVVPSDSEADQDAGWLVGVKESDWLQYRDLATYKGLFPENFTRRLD

[2] = target: endophilin SH3 (SH3G2_HUMAN), Q99962; experiment: SPOT array

Binder: AGSSPGKPPRLVGG [P01034 24-38]
- normalised SPOT signal, Boehringer light units (BLU); mean over the file's lines of this peptide [1]: 272
- normalised SPOT signal, Boehringer light units (BLU); mean over the file's lines of this peptide [2]: 102

Binder: ETSMLKRPVLLHLH [Q9UHE8 34-47]
- normalised SPOT signal, Boehringer light units (BLU); mean over the file's lines of this peptide [1]: 79.9
- normalised SPOT signal, Boehringer light units (BLU); mean over the file's lines of this peptide [2]: 440

Binder: ETSMLKRPVLLHLQ [Q9Y6U5 44-57]
- normalised SPOT signal, Boehringer light units (BLU); mean over the file's lines of this peptide [1]: 16.4
- normalised SPOT signal, Boehringer light units (BLU); mean over the file's lines of this peptide [2]: 182

Binder: EVDGLSRPQRPRPR [Q9HC10 643-656]
- normalised SPOT signal, Boehringer light units (BLU); mean over the file's lines of this peptide [1]: 135
- normalised SPOT signal, Boehringer light units (BLU); mean over the file's lines of this peptide [2]: 281

Binder: EVEMLPRPPKVTKE [P11532 250-263]
- normalised SPOT signal, Boehringer light units (BLU); mean over the file's lines of this peptide [1]: 103
- normalised SPOT signal, Boehringer light units (BLU); mean over the file's lines of this peptide [2]: 63

Binder: EVFFPPRPERVEHN [Q16530 104-117]
- normalised SPOT signal, Boehringer light units (BLU); mean over the file's lines of this peptide [1]: 484
- normalised SPOT signal, Boehringer light units (BLU); mean over the file's lines of this peptide [2]: 122

Binder: EVITLERPLRSNSS [Q9NRY7 86-99]
- normalised SPOT signal, Boehringer light units (BLU); mean over the file's lines of this peptide [1]: 384
- normalised SPOT signal, Boehringer light units (BLU); mean over the file's lines of this peptide [2]: 121

Binder: EVITLERPLRSSSS [O15162 171-184]
- normalised SPOT signal, Boehringer light units (BLU); mean over the file's lines of this peptide [1]: 660
- normalised SPOT signal, Boehringer light units (BLU); mean over the file's lines of this peptide [2]: 102

Binder: EVLELRRPMDSRLE [P78524 857-870]
- normalised SPOT signal, Boehringer light units (BLU); mean over the file's lines of this peptide [1]: 43.8
- normalised SPOT signal, Boehringer light units (BLU); mean over the file's lines of this peptide [2]: 34.9

Binder: EVMILRRPSLQRRA [Q9ULT8 713-726]
- normalised SPOT signal, Boehringer light units (BLU); mean over the file's lines of this peptide [1]: 236
- normalised SPOT signal, Boehringer light units (BLU); mean over the file's lines of this peptide [2]: 2210

Binder: EVPDPNRPQRLGLH [O60275 1047-1060]
- normalised SPOT signal, Boehringer light units (BLU); mean over the file's lines of this peptide [1]: 198
- normalised SPOT signal, Boehringer light units (BLU); mean over the file's lines of this peptide [2]: 228

Binder: AGSSPRRPQGGSDA [Q96IQ9 293-306]
- normalised SPOT signal, Boehringer light units (BLU); mean over the file's lines of this peptide [1]: 20.7
- normalised SPOT signal, Boehringer light units (BLU); mean over the file's lines of this peptide [2]: 51.2

Binder: EVPTPKRPRGRPKG [P17096 49-62]
- normalised SPOT signal, Boehringer light units (BLU); mean over the file's lines of this peptide [1]: 36
- normalised SPOT signal, Boehringer light units (BLU); mean over the file's lines of this peptide [2]: 41.8

Binder: EVQPPVRPGKGGSV [Q9BXU7 105-118]
- normalised SPOT signal, Boehringer light units (BLU); mean over the file's lines of this peptide [1]: 143
- normalised SPOT signal, Boehringer light units (BLU); mean over the file's lines of this peptide [2]: 136

Binder: EWASLLRPLRGREP [O94987 53-66]
- normalised SPOT signal, Boehringer light units (BLU); mean over the file's lines of this peptide [1]: 308
- normalised SPOT signal, Boehringer light units (BLU); mean over the file's lines of this peptide [2]: 170

Binder: EWIVFRRPVPISYH [P23470 266-279]
- normalised SPOT signal, Boehringer light units (BLU); mean over the file's lines of this peptide [1]: 95.2
- normalised SPOT signal, Boehringer light units (BLU); mean over the file's lines of this peptide [2]: 557

Binder: EYALPQRPPQGPED [BAC04305 7-21]
- normalised SPOT signal, Boehringer light units (BLU); mean over the file's lines of this peptide [1]: 38.5
- normalised SPOT signal, Boehringer light units (BLU); mean over the file's lines of this peptide [2]: 36.6

Binder: EYHRPAKPPPPPTG [BAC04960 97-111]
- normalised SPOT signal, Boehringer light units (BLU); mean over the file's lines of this peptide [1]: 43.8
- normalised SPOT signal, Boehringer light units (BLU); mean over the file's lines of this peptide [2]: 86

Binder: FAPEFRRPKNIHLR [Q9UPW7 1021-1034]
- normalised SPOT signal, Boehringer light units (BLU); mean over the file's lines of this peptide [1]: 41.6
- normalised SPOT signal, Boehringer light units (BLU); mean over the file's lines of this peptide [2]: 204

Binder: FSDFLKRPIALLKM [Q9H3T9 40-53]
- normalised SPOT signal, Boehringer light units (BLU); mean over the file's lines of this peptide [1]: 22
- normalised SPOT signal, Boehringer light units (BLU); mean over the file's lines of this peptide [2]: 399

Binder: FDGRPTKPPPNSYS [P17480 292-306]
- normalised SPOT signal, Boehringer light units (BLU); mean over the file's lines of this peptide [1]: 66.2
- normalised SPOT signal, Boehringer light units (BLU); mean over the file's lines of this peptide [2]: 351

Binder: FDGSPEKPPEDDSD [O94885 388-402]
- normalised SPOT signal, Boehringer light units (BLU); mean over the file's lines of this peptide [1]: 36.5
- normalised SPOT signal, Boehringer light units (BLU); mean over the file's lines of this peptide [2]: 36.7

Binder: AHLPPPRPQRPAET [Q9UFB1 214-227]
- normalised SPOT signal, Boehringer light units (BLU); mean over the file's lines of this peptide [1]: 248
- normalised SPOT signal, Boehringer light units (BLU); mean over the file's lines of this peptide [2]: 238

Binder: FDNTLSRPSRVPLG [Q99743 208-221]
- normalised SPOT signal, Boehringer light units (BLU); mean over the file's lines of this peptide [1]: 1220
- normalised SPOT signal, Boehringer light units (BLU); mean over the file's lines of this peptide [2]: 170

Binder: FEEGIKRPYFHVKP [Q9NWR1 213-226]
- normalised SPOT signal, Boehringer light units (BLU); mean over the file's lines of this peptide [1]: 48.9
- normalised SPOT signal, Boehringer light units (BLU); mean over the file's lines of this peptide [2]: 147

Binder: FEGSLRRPLSWKSL [Q9BPU7 391-404]
- normalised SPOT signal, Boehringer light units (BLU); mean over the file's lines of this peptide [1]: 43.8
- normalised SPOT signal, Boehringer light units (BLU); mean over the file's lines of this peptide [2]: 67.7

Binder: FERPFRRPNANFTS [Q9NVW8 331-344]
- normalised SPOT signal, Boehringer light units (BLU); mean over the file's lines of this peptide [1]: 4010
- normalised SPOT signal, Boehringer light units (BLU); mean over the file's lines of this peptide [2]: 343

Binder: FFKGIRRPWKGVLM [O75449 234-247]
- normalised SPOT signal, Boehringer light units (BLU); mean over the file's lines of this peptide [1]: 62.9
- normalised SPOT signal, Boehringer light units (BLU); mean over the file's lines of this peptide [2]: 159

Binder: FGAVLRRPHDPKTV [Q07283 41-54]
- normalised SPOT signal, Boehringer light units (BLU); mean over the file's lines of this peptide [1]: 18.4
- normalised SPOT signal, Boehringer light units (BLU); mean over the file's lines of this peptide [2]: 51.1

Binder: FGDKFKRPIGSWES [P49790 786-799]
- normalised SPOT signal, Boehringer light units (BLU); mean over the file's lines of this peptide [1]: 34
- normalised SPOT signal, Boehringer light units (BLU); mean over the file's lines of this peptide [2]: 45.5

Binder: FGDLPRKPPLPSSA [Q96QH2 422-436]
- normalised SPOT signal, Boehringer light units (BLU); mean over the file's lines of this peptide [1]: 48.3
- normalised SPOT signal, Boehringer light units (BLU); mean over the file's lines of this peptide [2]: 994

Binder: FGLVPERPLKQELG [Q99526 361-374]
- normalised SPOT signal, Boehringer light units (BLU); mean over the file's lines of this peptide [1]: 647
- normalised SPOT signal, Boehringer light units (BLU); mean over the file's lines of this peptide [2]: 284

Binder: FGRRPRRPVDGRVG [Q8WUZ5 5-18]
- normalised SPOT signal, Boehringer light units (BLU); mean over the file's lines of this peptide [1]: 35.7
- normalised SPOT signal, Boehringer light units (BLU); mean over the file's lines of this peptide [2]: 83.3

Binder: AHMAISRPLKASQM [Q9HCH8 560-573]
- normalised SPOT signal, Boehringer light units (BLU); mean over the file's lines of this peptide [1]: 137
- normalised SPOT signal, Boehringer light units (BLU); mean over the file's lines of this peptide [2]: 417

Binder: FGTLPPRPPGQDTS [O75336 479-493]
- normalised SPOT signal, Boehringer light units (BLU); mean over the file's lines of this peptide [1]: 52.3
- normalised SPOT signal, Boehringer light units (BLU); mean over the file's lines of this peptide [2]: 77.3

Binder: FHKIFIRPLRYRSR [Q13258 335-348]
- normalised SPOT signal, Boehringer light units (BLU); mean over the file's lines of this peptide [1]: 15900
- normalised SPOT signal, Boehringer light units (BLU); mean over the file's lines of this peptide [2]: 2980

Binder: FIKIPRRPDQPGKG [Q99853 71-84]
- normalised SPOT signal, Boehringer light units (BLU); mean over the file's lines of this peptide [1]: 117
- normalised SPOT signal, Boehringer light units (BLU); mean over the file's lines of this peptide [2]: 479

Binder: FKDVLLRPKRSSLK [P36959 12-25]
- normalised SPOT signal, Boehringer light units (BLU); mean over the file's lines of this peptide [1]: 3460
- normalised SPOT signal, Boehringer light units (BLU); mean over the file's lines of this peptide [2]: 557

Binder: FLAKIARPKKRAET [P78508 165-178]
- normalised SPOT signal, Boehringer light units (BLU); mean over the file's lines of this peptide [1]: 168
- normalised SPOT signal, Boehringer light units (BLU); mean over the file's lines of this peptide [2]: 190

Binder: FLSIPRRPNWNQNT [Q9NUK8 110-123]
- normalised SPOT signal, Boehringer light units (BLU); mean over the file's lines of this peptide [1]: 164
- normalised SPOT signal, Boehringer light units (BLU); mean over the file's lines of this peptide [2]: 1230

Binder: FLDYLKRPGLTYLQ [O14802 125-138]
- normalised SPOT signal, Boehringer light units (BLU); mean over the file's lines of this peptide [1]: 14.8
- normalised SPOT signal, Boehringer light units (BLU); mean over the file's lines of this peptide [2]: 7.9

Binder: FLGGPARPPSPSPS [P08588 264-278]
- normalised SPOT signal, Boehringer light units (BLU); mean over the file's lines of this peptide [1]: 80.6
- normalised SPOT signal, Boehringer light units (BLU); mean over the file's lines of this peptide [2]: 8610
